In publication doi:10.1101/2020.01.13.903898 (bioRxiv, 2020):

B1: mouse PATZ1 BTB domain (residues 12-166) (domain or fragment)
chain: SGCYTYQVSRHSTEMLHNLNQQRKNGGRFCDVLLRVGDESFPAHRAVLAACSEYFESVFSAQLGDGGAADGGPADVGGAAAAPGGGAGGSRELEMHTISSKVFGDILDFAYTSRIVVRLESFPELMTAAKFLLMRSVIEICQEVIKQSNVQILVP

Experiments:
[1] = biological target: zebrafish PATZ1 BTB domain (residues 1-135) (zebrafish (Danio rerio)); assay: SEC
[2] = biological target: the molecule itself; assay: SEC

Row | Molecule | stoichiometry N [1] | stoichiometry N [2]
1 | zebrafish PATZ1 BTB domain (residues 1-135) (domain or fragment) | 2 | 
2 | B1 |  | 2
